This data set concerns C[C@@H]1O[C@H](OP(=O)(O)OP(=O)(O)OC[C@H]2O[C@@H](n3cnc4c(=O)[nH]c(N)nc43)[C@H](O)[C@@H]2O)[C@@H](O)[C@H](O)[C@@H]1O. As to the kind of experiment: purified protein. Conditions: apparent, acceptor LacNAc 3 mM, Tris-HCl pH 7.5, 37 °C.

As a reminder, the Km is the substrate concentration at which the rate is half of its maximum. The kcat is the number of substrate molecules converted per active site and unit of time at saturation. Broadly, the kcat/Km is the turnover number divided by the Michaelis constant.

For Hp3FT (Helicobacter pylori), the Km was found to be 6.4480 ± 1.1360 mM, the turnover number (kcat) stood at 0.617 ± 0.0417 s⁻¹ and the kcat/Km was 96 M⁻¹ s⁻¹.
